Reference: patent publication US20240400717A1, “Antibody Binding to CHI3L1 for Treating Cancer” (National Cheng Kung University, priority 2021, published 2024)
One block for each molecule: values may come before it.

Experiments:
[1] = biological target: CHI3L1-receptor(s) interaction on HCT116, SW480, SW620, PANC1 and MiaPaCa-2 (Homo sapiens, UniProt P36222); assay: Flow cytometry blockage of rCHI3L1-receptor(s) interaction, colorectal and pancreatic cancer cell lines; type: cell-based; details: HCT116, SW480, SW620, PANC1, MiaPaCa-2, flow cytometry
Experimental: CHI3L1 have been reported to interact with several receptors on cancer cells, and trigger downstream signaling for cancer cell growth, proliferation and anti-apoptosis (Kamba et al. 2013; Lee et al. 2016). […] His-tagged rCHI3L1 was added for CHI3L1-receptor(s) interaction. Anti-His antibody AHAb with fluorescent F recognized CHI3L1-receptor(s) R complex for detection (left, FIG. 4A). Once fully human mAbs (nCHI3L1 Ab) blocked the CHI3L1-receptor(s) interaction, the fluorescent F signals were decreased (right, FIG. 4A) and cell signaling CS was blockade.
(§1) Four selected clones of mAbs including R4-4, R4-54, 293R3-2, and 293R3-4 were further tested for blocking effect on human colorectal (HCT116, SW480, and SW620) and pancreatic cancer cell lines (PANC1 and MiaPaCa-2). […] P values were determined by one-way ANOVA. * P<0.05, ** P<0.01, *** P<0.001, **** P<0.0001. For binding specificity examination, we further coated different concentration of recombinant CHI3L1 protein, and two other major proteins in chitinase family including human chitotriosidase-1 (CHIT1) and CHI3L2 from 2.5 μg/ml to 0 μg/ml, on 96-well plate.

PANC1 cells = assay: Immunoblot of rCHI3L1-induced AKT and ERK phosphorylation, PANC1; type: cell-based, human; details: PANC1, rCHI3L1 100 ng/ml, 20 minutes, different dose of mAbs
Experimental: The involvement of CHI3L1 in intracellular signaling pathways has been reported. For example, CHI3L1 binding to CD44 activates protein kinase B (AKT) and extracellular signal-regulated kinase (ERK) signaling to promote cancer progression (Chen, Jiang et al. 2021). Thus, we tested whether mAb clones R4-4, R4-54, 293R3-2, and 293R3-4 could attenuate AKT and ERK phosphorylation in human pancreatic (PANC1), colorectal (HCT116), and lung (A549) cancer cell lines. PANC1 cells were treated with rCHI3L1 (100 ng/ml) only or rCHI3L1 with different dose of mAbs as indicated for 20 minutes.

CHI3L2 = biological target: T1, CHI3L2 (Homo sapiens, UniProt Q15782); assay: ELISA binding specificity, CHI3L2; details: mAbs 1 μg/ml; coated protein 2.5 μg/ml to 0 μg/ml
T1 sequence (Q15782 27-390): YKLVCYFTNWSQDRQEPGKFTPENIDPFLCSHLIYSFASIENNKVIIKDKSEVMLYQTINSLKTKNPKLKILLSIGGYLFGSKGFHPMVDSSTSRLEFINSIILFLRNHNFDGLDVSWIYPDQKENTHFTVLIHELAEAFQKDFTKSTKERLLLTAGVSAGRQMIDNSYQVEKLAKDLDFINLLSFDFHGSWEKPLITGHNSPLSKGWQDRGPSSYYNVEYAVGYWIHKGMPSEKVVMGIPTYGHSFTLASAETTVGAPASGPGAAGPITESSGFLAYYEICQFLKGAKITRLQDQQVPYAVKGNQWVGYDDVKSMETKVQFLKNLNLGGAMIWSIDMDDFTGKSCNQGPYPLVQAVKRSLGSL
Experimental: as §1

[2] = system: MiaPaCa-2, SW480 and A549 cells; assay: Wound healing assay with rCHI3L1; type: cell-based, human; details: MiaPaCa-2, SW480, A549; 16 hours
Experimental: Since AKT regulates cell migration, we further performed wound healing assay to examine the anti-migratory effect of mAbs on pancreatic (MiaPaCa-2), colorectal (SW480), and lung (A549) cells. We observed that after 16 hours, the wound closure area was increased compared to that in control groups upon rCHI3L1 treatment. […] Taken together, our fully human monoclonal CHI3L1 neutralizing antibody clones R4-4, R4-54, 293R3-2, and 293R3-4 blocked the CHI3L1 induced signaling and cell behaviors of tumor cells. The data was presented as mean±S.D. (n=3 per group). P values were determined by one-way ANOVA. * P<0.05, ** P<0.01, *** P<0.001, **** P<0.0001.

hCHI3L1/flag-His = biological target: T2, hCHI3L1/flag-His (Homo sapiens, UniProt P36222); assay: In tandem epitope binning on Octet Red96; type: binding; details: for epitope cluster: among four anti-CHI3L1 mAbs; for competitive binding class, CHI3L1 293R3-2: paired with CHI3L1 293R3-2; for Epitope Binning Heat Map value, CHI3L1 293R3-2: paired with CHI3L1 293R3-2, 100 nM each; for competitive binding class, CHI3L1 293R3-4: paired with CHI3L1 293R3-4; for Epitope Binning Heat Map value, CHI3L1 293R3-4: paired with CHI3L1 293R3-4, 100 nM each; for competitive binding class, CHI3L1 R4-4: paired with CHI3L1 R4-4; for Epitope Binning Heat Map value, CHI3L1 R4-4: paired with CHI3L1 R4-4, 100 nM each; for competitive binding class, CHI3L1 R4-54: paired with CHI3L1 R4-54; for Epitope Binning Heat Map value, CHI3L1 R4-54: paired with CHI3L1 R4-54, 100 nM each
T2 construct: human CHI3L1 extracellular domain fused with flag and His tag
Experimental: In order to know the epitopic coverage for those four antibodies to increase the success of therapeutic CHI3L1 antibody development, epitope binning is used to characterize the binding site of mAbs to the corresponding antigen and summarized in the Table 4. In epitope binning, mAbs specific to the same target protein are tested pairwise against all mAbs in a set to assess whether they block one another's binding to a specific site of the antigen or not. The mAbs that block binding to the same epitope are “binned” together. mAbs within the same bin often function similarly, so epitope bins can narrow down the choices to fewer candidates for investigators to choose from. The in tandem epitope binning assay conducted on Octet Red96 comprised a five-step binding cycle; 1) a buffer baseline was established for 30 sec, 2) 100 nM hCHI3L1/flag-His was captured for 5 min, 3) 100 nM mAb array was loaded to saturate the captured antigen for 10 min, 4) 100 nM of the test mAb was bound for 5 min, and 5) the capture surfaces were regenerated for 30 sec. Anti-His surfaces were regenerated with 10 mM glycine pH 1.7. Raw data was processed using ForteBio's Data Analysis HT Software 11.1 and the antibody pairs were assessed for competitive binding. Additional binding by the second antibody indicates an unoccupied epitope (non-competitor, marked as *c in Table 4), while no binding indicates epitope blocking (competitor, marked as *b in Table 4) and self-competing antibodies were marked as *a in Table 4. Among four anti-CHI3L1 mAbs, there are two epitope clusters.

PANC1 and H460 cells = assay: CCK-8 cell viability assay with rCHI3L1; type: cell-based, human; details: PANC1 and H460, rCHI3L1 with mAbs at two doses
Experimental: PI3K/AKT/mTOR signaling pathway is important in regulating cell proliferation, survival and migration (Xu et al. 2020). Therefore, we investigated the effect of four selected mAbs on cancer cell behaviors. Human pancreatic (PANC1) and large cell cancer of the lung (H460) cells were treated with rCHI3L1 only or together with mAbs at two doses, and then subjected to cell counting kit 8 (CCK-8) cell viability assay. […] P values were determined by one-way ANOVA. * P<0.05, ** P<0.01, *** P<0.001, **** P<0.0001.

T2 sequence (P36222 22-383): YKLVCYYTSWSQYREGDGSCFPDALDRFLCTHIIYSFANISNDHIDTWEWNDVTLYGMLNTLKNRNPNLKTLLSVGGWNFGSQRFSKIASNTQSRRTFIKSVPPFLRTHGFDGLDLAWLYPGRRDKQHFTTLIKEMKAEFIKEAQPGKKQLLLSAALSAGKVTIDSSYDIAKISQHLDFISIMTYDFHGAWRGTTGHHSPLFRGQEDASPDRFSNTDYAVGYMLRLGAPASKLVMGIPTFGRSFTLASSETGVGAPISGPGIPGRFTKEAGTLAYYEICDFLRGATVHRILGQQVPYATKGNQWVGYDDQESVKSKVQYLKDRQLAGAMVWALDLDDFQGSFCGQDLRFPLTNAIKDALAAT
Sequence of CHI3L1-receptor(s) interaction on HCT116, SW480, SW620, PANC1 and MiaPaCa-2 (P36222 22-383): as above

rCHI3L1 binding to cells [1]: significantly reduced
binding specificity: recognition of CHI3L2 (CHI3L2): no other chitinase proteins
epitope cluster (hCHI3L1/flag-His): unidirectional blocking results
competitive binding class, CHI3L1 293R3-2 (hCHI3L1/flag-His): *^b
Epitope Binning Heat Map value, CHI3L1 293R3-2 (hCHI3L1/flag-His): 0.1221
competitive binding class, CHI3L1 293R3-4 (hCHI3L1/flag-His): *^a
Epitope Binning Heat Map value, CHI3L1 293R3-4 (hCHI3L1/flag-His): 0.3014
competitive binding class, CHI3L1 R4-4 (hCHI3L1/flag-His): *^c
Epitope Binning Heat Map value, CHI3L1 R4-4 (hCHI3L1/flag-His): 1.1089
competitive binding class, CHI3L1 R4-54 (hCHI3L1/flag-His): *^c
Epitope Binning Heat Map value, CHI3L1 R4-54 (hCHI3L1/flag-His): 0.4217
B1: 293R3-4: fully human anti-CHI3L1 IgG1 mAb, Table 1 No. 4; heavy chain SEQ ID NO: 73, light chain SEQ ID NO: 74 (antibody, listed as Homo sapiens)
VH: EVQLVQSGAEVKKPGATVKISCKVSGYSFTDYYIHWVQQAPGKGLEWMGFVDPENGETIYAEKFQGRVTITADTSTDTAYMELSSLRSDDTAVYYCATDRDYDDSSGNAFDIWGQGTMVTVSS
light: SYELTQPPSVSVSTGQTATITCSGDILGDEYAFWYQQKAGQSPVLVIYLDTRRPSGIPERFSGSNSGDTATLTISETQPVDEAVYFCQGWDSSTALYVFGTGTKVTVLGQPKANPTVTLFPPSSEELQANKATLVCLISDFYPGAVTVAWKADGSPVKAGVETTKPSKQSNNKYAASSYLSLTPEQWKSHRSYSCQVTHEGSTVEKTVAPTECS
p-AKT and p-ERK levels induced by rCHI3L1 (PANC1 cells): inhibited p-AKT and p-ERK levels induced by rCHI3L1 in a dose dependent manner
cell migration ability induced by rCHI3L1 (wound closure area) [2]: significantly reduced cell migration ability
cell viability (CCK-8) (PANC1 and H460 cells): reduced the viability

rCHI3L1 binding to cells [1]: significantly reduced
binding specificity: recognition of CHI3L2 (CHI3L2): no other chitinase proteins
epitope cluster (hCHI3L1/flag-His): unidirectional blocking results
competitive binding class, CHI3L1 293R3-2 (hCHI3L1/flag-His): *^a
Epitope Binning Heat Map value, CHI3L1 293R3-2 (hCHI3L1/flag-His): 0.2110
competitive binding class, CHI3L1 293R3-4 (hCHI3L1/flag-His): *^c
Epitope Binning Heat Map value, CHI3L1 293R3-4 (hCHI3L1/flag-His): 0.6303
competitive binding class, CHI3L1 R4-4 (hCHI3L1/flag-His): *^c
Epitope Binning Heat Map value, CHI3L1 R4-4 (hCHI3L1/flag-His): 0.7478
competitive binding class, CHI3L1 R4-54 (hCHI3L1/flag-His): *^c
Epitope Binning Heat Map value, CHI3L1 R4-54 (hCHI3L1/flag-His): 0.7349
B2: 293R3-2: fully human anti-CHI3L1 IgG1 mAb, Table 1 No. 2; heavy chain SEQ ID NO: 65, light chain SEQ ID NO: 66 (antibody, listed as Homo sapiens)
VH: QVQLQESGPGLVEPSGTLSLTCAVSGGSISSSNWWSWVRQHPGKGLEWIGEIYHSGSTNYNPSLRSRVTISVDKSKNQFSLELSSVTAADTAVYYCAGDQRMEDDAFDIWGQGTMVTVSS
light: QSALTQPASVSGSPGQSITISCTGTSSDVGGYNYVSWYQQHPGKAPKLMIYDVSNRPSGVSNRFSGSKSGNTASLTISGLQAEDEADYYCSSYTSSSTLYVFGTGTKVTVLGQPKANPTVTLFPPSSEELQANKATLVCLISDFYPGAVTVAWKADGSPVKAGVETTKPSKQSNNKYAASSYLSLTPEQWKSHRSYSCQVTHEGSTVEKTVAPTECS
p-AKT and p-ERK levels induced by rCHI3L1 (PANC1 cells): inhibited p-AKT and p-ERK levels induced by rCHI3L1 in a dose dependent manner
cell migration ability induced by rCHI3L1 (wound closure area) [2]: significantly reduced cell migration ability
cell viability (CCK-8) (PANC1 and H460 cells): reduced the viability

rCHI3L1 binding to cells [1]: significantly reduced
binding specificity: recognition of CHI3L2 (CHI3L2): no other chitinase proteins
epitope cluster (hCHI3L1/flag-His): exclusive epitope
competitive binding class, CHI3L1 293R3-2 (hCHI3L1/flag-His): *^c
Epitope Binning Heat Map value, CHI3L1 293R3-2 (hCHI3L1/flag-His): 0.5680
competitive binding class, CHI3L1 293R3-4 (hCHI3L1/flag-His): *^c
competitive binding class, CHI3L1 R4-4 (hCHI3L1/flag-His): *^a
Epitope Binning Heat Map value, CHI3L1 R4-4 (hCHI3L1/flag-His): 0.1232
competitive binding class, CHI3L1 R4-54 (hCHI3L1/flag-His): *^c
Epitope Binning Heat Map value, CHI3L1 R4-54 (hCHI3L1/flag-His): 1.3845
B3: R4-4: fully human anti-CHI3L1 IgG1 mAb, Table 1 No. 9; heavy chain SEQ ID NO: 9, light chain SEQ ID NO: 10 (antibody, listed as Homo sapiens)
VH: EVQLLESGGGLLQPGGSLRLSCAASGLTFRNYAMTWVRQAPGKGLEWVSTISGNGDETFYADSVKGHFTISRDNSKDTVYLQMNSLRAEDTAVYYCAKGGHYSFFDSWGQGSPVTVSS
light: NFMLTQPHSVSESPGKTVTISCTRSSGSIASNYVQWYQQRPGSSPTTVIYEDNQRPSGVPDRFSGSIDSSSNSASLTISGLKTEDEADYYCQSYDSSNYVFGTGTKVTVLGQPKANPTVTLFPPSSEELQANKATLVCLISDFYPGAVTVAWKADGSPVKAGVETTKPSKQSNNKYAASSYLSLTPEQWKSHRSYSCQVTHEGSTVEKTVAPAECS
p-AKT and p-ERK levels induced by rCHI3L1 (PANC1 cells): inhibited p-AKT and p-ERK levels induced by rCHI3L1 in a dose dependent manner
cell migration ability induced by rCHI3L1 (wound closure area) [2]: significantly reduced cell migration ability
cell viability (CCK-8) (PANC1 and H460 cells): reduced the viability
